# Data from patent publication US20240092867A1 (UNIVERSITY OF CHICAGO, published 2024).
# T1: recombinant laminin α3 2928-3150 protein (linker domain and LG4 domain) (human, UniProt Q16787 2928-3150)
# T1 construct: range 2928-3150; Made in HEK-293F cells; also called laminin alpha 3 LG domain recombinant protein
# T1 sequence: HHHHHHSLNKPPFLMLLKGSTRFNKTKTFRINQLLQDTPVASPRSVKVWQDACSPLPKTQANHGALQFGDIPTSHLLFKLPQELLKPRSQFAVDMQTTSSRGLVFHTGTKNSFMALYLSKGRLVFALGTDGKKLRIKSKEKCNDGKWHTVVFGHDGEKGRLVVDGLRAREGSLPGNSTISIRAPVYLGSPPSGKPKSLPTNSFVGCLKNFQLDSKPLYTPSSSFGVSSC
# B1: vascular endothelial growth factor (VEGF)-A165 (ligand, human, UniProt P15692-4 27-191, looked up)
# chain: APMAEGGGQNHHEVVKFMDVYQRSYCHPIETLVDIFQEYPDEIEYIFKPSCVPLMRCGGCCNDEGLECVPTEESNITMQIMRIKPHQGQHIGEMSFLQHNKCECRPKKDRARQENPCGPCSERRKHLFVQDPQTCKCSCKNTDSRCKARQLELNERTCRCDKPRR
# notes: mature; Purchased in mature form, not glycosylated
# Experiments:
# [1] = target: T1, recombinant laminin α3 2928-3150 …; assay: SPR, α3 2928-3150 immobilised, GF flowed, Langmuir fit
# Protocol: Affinity of GFs against recombinant laminin LG domains. ELISA plates were coated with 1 μg/mL (A) α3₂₉₂₈₋₃₁₅₀, (B) α4₈₂₆₋₁₈₁₆, or (C) α5₃₀₂₆₋₃₄₈₂ and further incubated with 1 μg/mL of VEGF-A165, VEGF-A121, PlGF-2, PlGF-1, PDGF-BB, or FGF-2 solution. Bound GFs were detected using a specific antibody for each GF (n=4, mean±SEM). Statistical analyses were done using the Mann-Whitney U test by comparing the signals obtained from the laminin domain- and the BSA-coated wells. *p<0.05, **p<0.01. […] A SPR chip was functionalized with the laminin α3₂₉₂₈₋₃₁₅₀ recombinant protein (˜1000 RU), and each GF was flowed over the chip at indicated concentrations. Curves represent the specific responses (in RU) to laminin. Experimental curves were fitted with Langmuir binding kinetics.
# (§1) Because the GFs that bound to laminins have also been previously reported to bind to other ECM glycoproteins through HBDs, it was hypothesized that HBDs of laminins might be responsible for the interactions between GFs and laminin. To address this hypothesis, ELISA assays were repeated for VEGF-A165, PlGF-2 or FGF-2 in the presence of heparin added in excess (10 μM). […] To further confirm this, the inventors tested direct GF binding to the LG domains from human laminin α3, α4 and α5, within which HBDs of laminin were localized.
# SPR analysis was performed as described previously². […]
# [2] = target: T2, human plasma-derived vWF (human, UniProt P04275 764-2813); assay: SPR; plasma-derived vWF immobilised (~2000 RU), VEGF-A165 flowed at 6.25-100 nM; 1:1 Langmuir fit [panel C]
# T2 construct: mature; also called plasma-derived purified vWF; von Willebrand factor
# Protocol: A450 nm represents absorbance at 450 nm. Signals from VEGF-A121 served as a baseline, and bovine serum albumin (BSA) served as a negative control (n=4, mean±SD). […] Experimental curves were fitted with (C) 1:1 Langmuir fit model and (D) heterogeneous ligand-parallel reactions binding.
# SPR assays were performed as described previously2. In brief, measurements were made with a Biacore X100 SPR system or Biacore 3000 SPR system (GE Healthcare). […] Recombinant human VEGF-A165, VEGF-A121, or PDGF-BB was flowed at increasing concentrations in the running buffer at 30 μL/min. The sensor chip was regenerated with glycine at pH 2 for every cycle.
# [3] = target: T3, laminin-521 (human, UniProt O15230 36-3695; P55268 33-1798; P11047 34-1609); assay: SPR, laminin-521 immobilised, GF flowed, Langmuir fit
# T3 construct: Full-length recombinant human laminin isoform (BioLamina); chains read from the isoform name
# Protocol: A450 nm represents absorbance at 450 nm. BSA-coated wells served as negative controls (n=4, mean±SEM). Signals greater than 0.1 (grey box) are considered to be significant. […] Experimental curves were fitted with Langmuir binding kinetics.
# The obtained binding curves were fitted with Langmuir binding kinetics to calculate specific dissociation constants (KD) (FIG. 1B).
# SPR analysis was performed as described previously². In brief, measurements were made with a Biacore 3000 SPR system (GE Healthcare). […] VEGF-A165, PDGF-BB, or PlGF-2 was flowed at increasing concentrations in the running buffer at 20 μL/min. The sensor chip was regenerated with 50 mM NaOH for every cycle. Specific bindings of GFs to laminin were calculated by comparison to a non-functionalized channel used as a reference. Experimental results were fitted with Langmuir binding kinetics using BIAevaluation software (GE Healthcare).
# [4] = target: T4, laminin-421 (human, UniProt Q16363 25-1823; P55268 33-1798; P11047 34-1609); assay: ELISA; plate coated with 10 µg/mL laminin, 1 µg/mL VEGF-A165 in solution without or with 10 µM heparin, bound GF detected with antibody [panel A]
# T4 construct: Full-length recombinant human laminin isoform (BioLamina); chains read from the isoform name
# Protocol: (§2) FIGS. 2A-C. […] ELISA plates were coated with 10 μg/mL laminin and further incubated with a 1 μg/mL (A) VEGF-A165, (B) PlGF-2, or (C) FGF-2 solution in the absence or presence of excess (10 μM) heparin. Bound GFs were detected using a specific antibody for each GF (n=4, mean±SEM). Statistical analyses were done using the Mann-Whitney U test by comparing the signals with and without heparin. *p<0.05, **p<0.01.
# as §1
# [5] = target: T5, laminin-211 (human, UniProt P24043 23-3122; P07942 22-1786; P11047 34-1609); assay: as above
# T5 construct: Full-length recombinant human laminin isoform (BioLamina); chains read from the isoform name
# Protocol: as §2, §1
# [6] = target: T6, laminin-111 (human, UniProt P25391 18-3075; P07942 22-1786; P11047 34-1609); assay: as above
# T6 construct: Full-length recombinant human laminin isoform (BioLamina); Chain composition is read from the isoform name
# Protocol: as §2, §1
# [7] = target: T7, laminin-411 (human, UniProt Q16363 25-1823; P07942 22-1786; P11047 34-1609); assay: as above
# T7 construct: Full-length recombinant human laminin isoform (BioLamina); chains read from the isoform name
# Protocol: as §2, §1
# T4 sequence (Q16363 25-1823 limits assumed, chain 1 of 3): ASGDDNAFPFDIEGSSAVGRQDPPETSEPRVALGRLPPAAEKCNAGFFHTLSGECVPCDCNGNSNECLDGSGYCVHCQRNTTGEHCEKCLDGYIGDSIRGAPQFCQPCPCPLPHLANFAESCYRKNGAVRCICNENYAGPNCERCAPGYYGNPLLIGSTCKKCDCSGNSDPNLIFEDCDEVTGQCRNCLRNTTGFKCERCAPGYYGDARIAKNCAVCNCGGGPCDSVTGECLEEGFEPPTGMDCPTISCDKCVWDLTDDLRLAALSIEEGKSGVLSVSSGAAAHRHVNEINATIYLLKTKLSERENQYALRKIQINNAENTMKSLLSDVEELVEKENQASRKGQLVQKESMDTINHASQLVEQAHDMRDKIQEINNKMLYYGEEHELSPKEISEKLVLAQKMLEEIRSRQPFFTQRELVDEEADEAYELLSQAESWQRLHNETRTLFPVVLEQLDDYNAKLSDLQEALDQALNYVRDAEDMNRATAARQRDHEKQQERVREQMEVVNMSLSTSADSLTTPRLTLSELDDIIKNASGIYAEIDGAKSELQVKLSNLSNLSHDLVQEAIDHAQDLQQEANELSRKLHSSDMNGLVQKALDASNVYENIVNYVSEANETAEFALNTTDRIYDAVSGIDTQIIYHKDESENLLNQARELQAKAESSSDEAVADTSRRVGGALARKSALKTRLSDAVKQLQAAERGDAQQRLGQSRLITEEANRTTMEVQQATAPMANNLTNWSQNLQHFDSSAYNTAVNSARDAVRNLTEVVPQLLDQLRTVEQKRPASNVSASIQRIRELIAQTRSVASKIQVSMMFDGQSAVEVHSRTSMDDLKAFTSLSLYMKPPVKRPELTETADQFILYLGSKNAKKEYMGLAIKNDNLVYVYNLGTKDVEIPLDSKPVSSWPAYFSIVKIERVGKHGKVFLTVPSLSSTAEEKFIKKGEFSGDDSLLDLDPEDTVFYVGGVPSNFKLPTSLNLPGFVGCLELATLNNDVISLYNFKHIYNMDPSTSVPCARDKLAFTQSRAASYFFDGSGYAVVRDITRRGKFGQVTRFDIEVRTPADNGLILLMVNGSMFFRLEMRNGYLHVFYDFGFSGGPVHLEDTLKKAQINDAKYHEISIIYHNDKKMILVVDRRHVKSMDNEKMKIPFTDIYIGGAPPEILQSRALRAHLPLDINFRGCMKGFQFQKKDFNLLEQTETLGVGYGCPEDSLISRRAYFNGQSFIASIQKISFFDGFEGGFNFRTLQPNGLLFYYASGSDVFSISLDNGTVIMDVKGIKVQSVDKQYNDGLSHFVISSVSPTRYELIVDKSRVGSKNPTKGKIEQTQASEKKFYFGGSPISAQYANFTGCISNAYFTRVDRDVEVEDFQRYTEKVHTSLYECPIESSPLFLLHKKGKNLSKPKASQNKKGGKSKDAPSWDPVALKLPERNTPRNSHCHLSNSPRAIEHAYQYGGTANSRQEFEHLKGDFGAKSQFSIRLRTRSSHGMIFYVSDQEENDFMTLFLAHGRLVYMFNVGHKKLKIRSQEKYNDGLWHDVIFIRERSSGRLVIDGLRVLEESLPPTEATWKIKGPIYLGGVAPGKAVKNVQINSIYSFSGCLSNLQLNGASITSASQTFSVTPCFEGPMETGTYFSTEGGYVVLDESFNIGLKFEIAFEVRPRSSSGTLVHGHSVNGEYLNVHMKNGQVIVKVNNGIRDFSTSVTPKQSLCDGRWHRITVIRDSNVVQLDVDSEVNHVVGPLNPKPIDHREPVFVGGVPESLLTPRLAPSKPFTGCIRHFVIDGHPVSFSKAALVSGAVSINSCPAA
# T4 sequence (P55268 33-1798 limits assumed, chain 2 of 3): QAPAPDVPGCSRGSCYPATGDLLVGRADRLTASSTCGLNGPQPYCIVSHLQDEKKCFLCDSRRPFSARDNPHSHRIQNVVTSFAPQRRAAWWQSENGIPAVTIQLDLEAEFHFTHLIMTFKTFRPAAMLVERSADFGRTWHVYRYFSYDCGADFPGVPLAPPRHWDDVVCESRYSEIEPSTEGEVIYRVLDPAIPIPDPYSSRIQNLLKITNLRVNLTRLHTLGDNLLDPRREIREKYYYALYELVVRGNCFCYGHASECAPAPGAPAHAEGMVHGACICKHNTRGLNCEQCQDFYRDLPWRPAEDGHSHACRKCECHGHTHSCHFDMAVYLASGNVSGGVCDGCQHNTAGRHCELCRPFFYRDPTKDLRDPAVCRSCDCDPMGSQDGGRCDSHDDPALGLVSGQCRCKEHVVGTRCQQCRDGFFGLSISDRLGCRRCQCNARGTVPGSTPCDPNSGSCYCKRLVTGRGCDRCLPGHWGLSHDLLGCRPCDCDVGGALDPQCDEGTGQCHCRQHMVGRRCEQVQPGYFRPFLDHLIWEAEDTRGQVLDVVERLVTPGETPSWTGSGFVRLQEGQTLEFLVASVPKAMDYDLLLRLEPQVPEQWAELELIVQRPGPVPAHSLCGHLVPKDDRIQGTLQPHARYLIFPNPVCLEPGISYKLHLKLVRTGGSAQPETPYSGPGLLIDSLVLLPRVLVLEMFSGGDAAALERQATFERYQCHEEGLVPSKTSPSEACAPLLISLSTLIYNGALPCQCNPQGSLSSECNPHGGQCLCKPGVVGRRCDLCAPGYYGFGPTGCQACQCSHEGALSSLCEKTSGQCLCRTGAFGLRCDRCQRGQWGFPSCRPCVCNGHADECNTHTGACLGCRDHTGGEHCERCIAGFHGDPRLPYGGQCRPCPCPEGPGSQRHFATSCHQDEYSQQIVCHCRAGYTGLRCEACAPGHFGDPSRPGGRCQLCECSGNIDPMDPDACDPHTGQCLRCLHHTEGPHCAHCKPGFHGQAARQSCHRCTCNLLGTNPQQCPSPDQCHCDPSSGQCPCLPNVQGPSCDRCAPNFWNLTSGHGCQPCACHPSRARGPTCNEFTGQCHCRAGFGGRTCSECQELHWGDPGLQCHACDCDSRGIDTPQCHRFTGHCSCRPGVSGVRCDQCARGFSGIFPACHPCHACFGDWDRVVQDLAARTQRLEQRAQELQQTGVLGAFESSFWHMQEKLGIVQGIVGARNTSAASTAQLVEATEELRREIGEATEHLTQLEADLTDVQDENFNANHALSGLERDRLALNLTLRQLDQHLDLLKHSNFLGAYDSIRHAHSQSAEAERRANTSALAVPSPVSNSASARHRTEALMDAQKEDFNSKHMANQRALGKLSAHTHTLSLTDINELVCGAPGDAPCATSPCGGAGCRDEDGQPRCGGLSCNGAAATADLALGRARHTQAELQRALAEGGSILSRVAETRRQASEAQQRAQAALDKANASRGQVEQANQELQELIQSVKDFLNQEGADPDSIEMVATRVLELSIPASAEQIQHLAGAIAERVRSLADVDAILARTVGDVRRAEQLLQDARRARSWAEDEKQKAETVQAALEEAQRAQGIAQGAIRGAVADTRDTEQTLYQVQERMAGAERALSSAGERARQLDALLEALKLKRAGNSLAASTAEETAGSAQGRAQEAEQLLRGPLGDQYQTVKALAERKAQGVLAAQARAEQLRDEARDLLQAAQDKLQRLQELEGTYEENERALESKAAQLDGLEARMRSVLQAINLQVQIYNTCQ
# T4 sequence (P11047 34-1609 limits assumed, chain 3 of 3): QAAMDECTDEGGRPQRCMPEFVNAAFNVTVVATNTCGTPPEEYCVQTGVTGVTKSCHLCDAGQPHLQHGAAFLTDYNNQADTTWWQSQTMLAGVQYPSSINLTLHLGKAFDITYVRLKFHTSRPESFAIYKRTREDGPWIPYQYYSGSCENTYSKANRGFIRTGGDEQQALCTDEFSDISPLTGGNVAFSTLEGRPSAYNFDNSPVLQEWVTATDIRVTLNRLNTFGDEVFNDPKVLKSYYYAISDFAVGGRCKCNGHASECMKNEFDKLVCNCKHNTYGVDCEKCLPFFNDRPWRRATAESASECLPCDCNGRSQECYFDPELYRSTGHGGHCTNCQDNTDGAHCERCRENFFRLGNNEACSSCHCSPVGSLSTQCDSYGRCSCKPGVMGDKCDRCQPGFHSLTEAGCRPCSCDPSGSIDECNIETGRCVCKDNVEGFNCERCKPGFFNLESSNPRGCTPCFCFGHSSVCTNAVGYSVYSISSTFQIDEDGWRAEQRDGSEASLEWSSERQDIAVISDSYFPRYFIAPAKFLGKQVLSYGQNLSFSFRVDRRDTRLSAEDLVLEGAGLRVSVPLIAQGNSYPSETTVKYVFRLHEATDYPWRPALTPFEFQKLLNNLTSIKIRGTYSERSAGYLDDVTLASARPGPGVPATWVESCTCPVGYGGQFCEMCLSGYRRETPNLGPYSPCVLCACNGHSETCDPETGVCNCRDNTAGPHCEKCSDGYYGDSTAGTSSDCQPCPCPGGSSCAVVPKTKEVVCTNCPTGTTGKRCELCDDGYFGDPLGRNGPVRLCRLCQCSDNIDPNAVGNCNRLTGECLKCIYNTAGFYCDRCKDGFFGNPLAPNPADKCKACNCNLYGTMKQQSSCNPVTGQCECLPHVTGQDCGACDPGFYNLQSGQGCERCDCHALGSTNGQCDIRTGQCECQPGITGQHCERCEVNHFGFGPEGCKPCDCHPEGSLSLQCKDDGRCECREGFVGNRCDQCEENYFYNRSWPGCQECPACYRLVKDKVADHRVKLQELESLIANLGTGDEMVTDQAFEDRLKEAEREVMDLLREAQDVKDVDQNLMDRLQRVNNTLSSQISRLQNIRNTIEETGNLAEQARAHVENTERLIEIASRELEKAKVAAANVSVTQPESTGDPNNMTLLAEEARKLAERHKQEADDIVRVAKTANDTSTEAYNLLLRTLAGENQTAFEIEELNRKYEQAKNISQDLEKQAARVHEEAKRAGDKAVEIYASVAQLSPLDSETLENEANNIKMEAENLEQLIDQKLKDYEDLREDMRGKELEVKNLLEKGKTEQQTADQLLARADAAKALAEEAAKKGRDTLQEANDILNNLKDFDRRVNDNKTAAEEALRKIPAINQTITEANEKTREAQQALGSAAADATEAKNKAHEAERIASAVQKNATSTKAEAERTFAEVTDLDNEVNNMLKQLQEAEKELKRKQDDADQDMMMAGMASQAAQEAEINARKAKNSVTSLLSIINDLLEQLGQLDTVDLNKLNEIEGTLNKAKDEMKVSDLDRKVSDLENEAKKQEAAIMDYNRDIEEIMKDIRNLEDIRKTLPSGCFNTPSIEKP
binder,measurement,setting,value
B1,Kd,[1],1.2 nM
same,Kd,[2],27.4 nM
same,Kd,[3],5.8 nM
same,binding result,[4],binds
same,binding result,[5],binds
same,binding result,[6],binds
same,binding result,[7],binds
